Measurements: patent US20050180952A1, “Methods for intradermal delivery of therapeutics agents” (priority 2003, published 2005)
“Also recorded” adds a separate entry of the source.

Tests used:
[1] = system: RSV; assay: Synagis plaque assay in vitro; assay type: cell-based; conditions: FIG. 8
[2] = system: RSV; assay: Virus challenge: viable virus in lung homogenates on Hep-2 monolayers; assay type: in vivo, Mice; conditions: single IN dose ~2.25 mg/Kg (15% of dose) 3 hours after infection with 1.3×10^5 PFU, 100 ul per well
Description: Mice were challenged with 1.3×10^5 plaque forming units. Three hours after infection a test group was treated with a single dose of Palivizumab IN (˜2.25 mg/Kg) and a control group received saline. Three days after infection, lung tissue was collected and homogenized. The subsequent homogenates were dispensed onto Hep-2 monolayers and the cultures were monitored for evidence of viable virus. The total homogenate volume recovered from each animal was approximately 1.5 to 2 mls and the amount placed in each test well was 100 ul.

[3] = system: CD49b (NK) cells; assay: NK cells count in draining lymph node by FACS analysis; assay type: in vivo, C57BL/6J mice; conditions: ID delivery vs other conditions
Description: C57BL/6J mice (Charles Rivers Labs, Inc) were inoculated SC with 1×10^6 B 16F10 melanoma cells (ATCC) on the upper right flank. One week following tumor inoculation (Day 7), the mice were randomized and treated with 100 ng rmIL-12 (R&D Systems) in 50 μL PBS solution through either ID or SC injections near tumor inoculation site, or an IP injection (n=25/condition). An additional condition of ID controls was run using 50 μL PBS solution alone. ID treatment was administered with a 34G, 1 mm needle using a modified mantoux method. SC and IP doses were given with standard 25G×¾″ needle. Treatment was continued every other day through Day 13 for a total of four doses. […] Mortality was determined through either natural death or euthanasia due to tumor size of greater than 400 mm^2. Statistical data were calculated using a t-Test: Two-Sample Assuming Unequal Variances. […]
The right side superficial inguinal draining lymph node (DLN) and the spleen were excised individually from 5 mice per each treatment group into Petri dishes containing cold HBSS (Invitrogen Life Technologies, Carlsbad, Calif.) for the DLN. […] The washed cells were resuspended in 1 ml of cold FacsFlow buffer and kept on ice in the dark until analyzed by flow cytometry using a FACS Vantage SE. Cell analysis was designed to exclude B cells and quantify CD4+ cells, CD8+ cells, and CD49b+ (NK cells). […]

[4] = system: B16F10 melanoma cells; assay: Effects of ID and IP delivery on antitumor activity of IL-12 (10 and 100 ng), tumor size; assay type: in vivo, C57BL Mice; conditions: for tumor size increase: by day 21
Description: (§1) C57BL Mice were inoculated subcutaneously (SC) with 1 million B16F10 melanoma cells (ATCC, Inc.). Treatment was initiated with IL-12 injections 7 days post-inoculation at two levels (10 and 100 ng) given as either an intraperitoneal (IP) or intradermal (ID) (tumor bearing side) dose. IL-12 doses were repeated every other day for a total of 4 treatments. As a control, the same volume of complete medium (PBS) was injected ID on the tumor bearing side. True negatives were also run in conjunction for serum and tissue samples (n=15/condition). Weights and tumor size were measured on days 7, 11, 14, 18 and 21. Blood samples were also collected at weekly intervals for IL-12 analysis. Two tumor diameters at right angles were measured with digital calipers, and the average tumor size was plotted with respect to days post inoculation with tumor cells.

[5] = system: B 16F10 melanoma cells; assay: Effects of routes of IL-12 delivery (ID, SC, IP) on tumor growth, 100 ng dose; assay type: in vivo, C57BL/6J mice
Description: (§2) C57BL/6J mice (Charles Rivers Labs, Inc) were inoculated SC with 1×10^6 B 16F10 melanoma cells (ATCC) on the upper right flank. One week following tumor inoculation (Day 7), the mice were randomized and treated with 100 ng rmIL-12 (R&D Systems) in 50 μL PBS solution through either ID or SC injections near tumor inoculation site, or an IP injection (n=25/condition). An additional condition of ID controls was run using 50 μL PBS solution alone. ID treatment was administered with a 34G, 1 mm needle using a modified mantoux method. SC and IP doses were given with standard 25G×¾″ needle. Treatment was continued every other day through Day 13 for a total of four doses. Tumor measurements in mm^2 (length×width) were collected on Days 7, 11, 14, 18, 21, 25 and 28. Blood samples were collected on Days 0, 14, 21 and 28 for IL-12 and IFN-gamma analysis. Draining lymph node and spleen tissue samples were collected from five animals in each condition on Days 14 and 24 for FACS analysis of CD49b (NK) cells. Mortality data were collected on 10 pre-selected animals that were not used for blood sampling or FACS analysis from each condition. Mortality was determined through either natural death or euthanasia due to tumor size of greater than 400 mm^2. Statistical data were calculated using a t-Test: Two-Sample Assuming Unequal Variances. See, e.g., Brunda, M., J. Exp. Med., 178: 1223-1230 (1993) and Leonard et al., Blood, 90: 2541-2548 (1997), both of which are incorporated herein by reference.

[6] = system: B16F10 melanoma cells; assay: Effects of site of ID delivery (tumor side vs contralateral side) on antitumor activity of IL-12; assay type: in vivo, C57BL Mice
Description: as §1, with “at” for “at two levels (10 and”, “ng” for “ng)”, “as” for “as either”, “ID dose on the tumor bearing” for “intraperitoneal (IP)”, “contralateral side” for “intradermal (ID) (tumor bearing side)”, “analysis. Draining lymph node and spleen samples were collected at 14 and 24 days for T cell, B cell and NK cell, and GP100 FACS analysis was performed.” for “analysis.”

[7] = system: B 16F10 melanoma cells; assay: Effects of routes of IL-12 administration on mortality of tumor-containing mice; assay type: in vivo, C57BL/6J mice; conditions: Day 28
Description: as §2

Molecule: Palivizumab: RSV Specific MAB (Palivizumab), Synagis, humanized antibody
- peak lung antibody concentration relative to any other delivery route (IN 100 μl group, 15 mg/kg): at least 2 times
- persistence of IN-delivered antibody in lung (IN delivery): short lived
- concentration of antibody capable of blocking high numbers of virus [1]: 6 µg/mL
- Lung Tissue Collected @ 72 Hours Post Infection (assayed straight), PFU [2]: no plaque forming units were observed; also recorded: No PFU Observed

B1: IL-12: rmIL-12 (R&D Systems), interleukin-12 cytokine given in PBS solution (protein, UniProt P43431 23-215; P43432 23-335, looked up)
Interleukin-12 subunit alpha: RVIPVSGPARCLSQSRNLLKTTDDMVKTAREKLKHYSCTAEDIDHEDITRDQTSTLKTCLPLELHKNESCLATRETSSTTRGSCLPPQKTSLMMTLCLGSIYEDLKMYQTEFQAINAALQNHNHQQIILDKGMLVAIDELMQSLNHNGETLRQKPPVGEADPYRVKMKLCILLHAFSTRVVTINRVMGYLSSA
Interleukin-12 subunit beta: MWELEKDVYVVEVDWTPDAPGETVNLTCDTPEEDDITWTSDQRHGVIGSGKTLTITVKEFLDAGQYTCHKGGETLSHSHLLLHKKENGIWSTEILKNFKNKTFLKCEAPNYSGRFTCSWLVQRNMDLKFNIKSSSSSPDSRAVTCGMASLSAEKVTLDQRDYEKYSVSCQEDVTCPTAEETLPIELALEARQQNKYENYSTSFFIRDIIKPDPPKNLQMKPLKNSQVEVSWEYPDSWSTPHSYFSLKFFVRIQRKKEKMKETEEGCNQKGAFLVEKTSTEVQCKGGNVCVQAQDRYYNSSCSKWACVPCRVRS
- NK cells in DLN ([3]; Day 14 (one day post regimen)): increase in NK cells is apparent
- NK cells in DLN ([3]; Day 24): relative increase above the other conditions
- average tumor size ([4]; 10 ng, ID, Day 11): 77 mm^2
- average tumor size ([4]; 10 ng, ID, Day 14): 120 mm^2
- tumor size increase from the previous measurement ([4]; 10 ng, ID, Day 14): 56%
- average tumor size ([4]; 10 ng, ID, Day 18): 112 mm^2
- tumor size decrease from the previous measurement ([4]; 10 ng, ID, Day 18): 6%
- average tumor size ([4]; 10 ng, ID, Day 21): 250 mm^2
- tumor size increase from the previous measurement ([4]; 10 ng, ID, Day 21): 121%
- average tumor size ([4]; 10 ng, IP, Day 11): 68 mm^2
- average tumor size ([4]; 10 ng, IP, Day 14): 113 mm^2
- tumor size increase from the previous measurement ([4]; 10 ng, IP, Day 14): 63%
- average tumor size ([4]; 10 ng, IP, Day 18): 206 mm^2
- tumor size increase from the previous measurement ([4]; 10 ng, IP, Day 18): 82%
- average tumor size ([4]; 10 ng, IP, Day 21): 262 mm^2
- tumor size increase from the previous measurement ([4]; 10 ng, IP, Day 21): 27%
- final average ID tumor size smaller than IP ([4]; 100 ng, Day 21): 47%
- average tumor size ([4]; 100 ng, ID, Day 11): 54 mm^2
- average tumor size ([4]; 100 ng, ID, Day 14): 75 nm^2
- tumor size increase from the previous measurement ([4]; 100 ng, ID, Day 14): 39%
- average tumor size ([4]; 100 ng, ID, Day 21): 142 mm^2
- tumor size increase ([4]; 100 ng, ID): 89%
- average tumor size ([4]; 100 ng, IP, Day 11): 70 mm^2
- average tumor size ([4]; 100 ng, IP, Day 14): 126 mm^2
- tumor size increase from the previous measurement ([4]; 100 ng, IP, Day 14): 80%
- average tumor size ([4]; 100 ng, IP, Day 21): 302 mm^2
- tumor size increase ([4]; 100 ng, IP): 139%
- Mean (tumor measurement, length x width) ([5]; Day 18, ID 100 ng): 62.29 mm^2
- Mean (tumor measurement, length x width) ([5]; Day 18, IP 100 ng): 158.2458 mm^2
- Mean (tumor measurement, length x width) ([5]; Day 18, SC 100 ng): 199.7379 mm^2
- Mean (tumor measurement, length x width) ([5]; Day 28, ID 100 ng): 127.2 mm^2
- Mean (tumor measurement, length x width) ([5]; Day 28, IP 100 ng): 383.7 mm^2
- Mean (tumor measurement, length x width) ([5]; Day 28, SC 100 ng): 352.9 mm^2
- inhibition of tumor growth ([5]; ID delivery, 100 ng, only route with effect (FIG. 1)): significant effects on inhibiting the tumor growth
- effectiveness relative to other conditions ([6]; 100 ng ID contralateral side): not as effective as those dosed near the tumor, but were better than the IP condition
- tumor size ([6]; 100 ng ID contralateral side (IDcs), Day 14): 75 mm^2
- overall tumor growth reduction ([6]; 100 ng ID near the tumor injection site): greatest reduction in overall tumor growth
- tumor size ([6]; 100 ng ID tumor side (IDts), Day 14): 75 mm^2
- tumor size increase ([6]; 100 ng IDcs, Day 14 to Day 18): 91%
- tumor size ([6]; 100 ng IDcs, Day 18): 43 mm^2
- tumor size increase ([6]; 100 ng IDcs, Day 18 to Day 21): 29%
- tumor size increase ([6]; 100 ng IDts, Day 14 to Day 18): 68%
- tumor size ([6]; 100 ng IDts, Day 18): 126 mm^2
- tumor size increase ([6]; 100 ng IDts, Day 18 to Day 21): 14%
- tumor size ([6]; 100 ng IDts, Day 21): 142 mm^2
- final tumor size for IDts smaller than IDcs ([6]; 100 ng, Day 21): 23%
- survivability compared to delivery through other routes or control ([7]; ID delivery): greater than 200%
- surviving animals ([7]; ID delivery 100 ng): 7 out of 10
- surviving animals ([7]; IP delivery 100 ng): 3 out of 10
- surviving animals ([7]; SC delivery 100 ng): 3 out of 10
